Measured values as given in PMC6398215.

Biological target: IgG
Experiment: not stated; equilibrium affinity of recombinant CHO FcγRIIIa for IgG, before and after enzymatic desialylation; method and conditions only in the supplement (Fig. S16)

- fold increase in equilibrium affinity against the untreated FcγRIIIa: 2 fold
Substance: enzymatically desialylated recombinant FcγRIIIa expressed in CHO cells (from UniProt P08637 17-254) (receptor)
